# Measurements: patent publication US8257714B2, “Compositions and methods for immunotherapy of cancer and infectious diseases” (priority 2003, dated 2012)
# Marks after values point to notes of the source that are not given here.
# B1: ARP E1: recombinant E. tenella ARP from E. coli clone E1 (ATCC PTA-6120), SEQ ID NO:28 (protein, listed as Eimeria tenella)
# chain: MGEEADTQAWDTSVREWLVDTGRVFAGGVASIADGCRLFGAAVEGEGNAWEELVKTNYQIEVPQEDGTSISVDCDEAETLRAVVDGRAPNGVYIGGTKYKLAEVKRDFTFNDQNYDVAILGKNKGGGFLIKTPNENVVIALYDEEKEQNKADALTTALNFAEYLYQGGF
# Assays:
# [1] = Stability of E1 in human serum albumin; type: physicochemical; conditions: for loss of activity: in the presence of HSA
# Excerpt: Higher temperature studies also indicate remarkable stability.
# [2] = test system: influenza virus A/NWS/33 (HINI); assay: Influenza infection in mice; type: in vivo, BALB/c mice; conditions: for Mean Day to Death ± SD: mice dying before day 21; for decline in arterial oxygen saturation: days 3-11
# Excerpt: Specific pathogen-free female BALB/c mice were infected intranasally with an LD90 dose of influenza virus A/NWS/33 (HINI). […] Placebo treated mice received bovine serum albumin in phosphate-buffered saline. Mice were observed daily for death.
# [3] = Experimental autoimmune encephalomyelitis (EAE) model; type: in vivo, SJL mice
# Protocol: Treatments were given daily for 5 days. Linomide is a drug that is known to inhibit EAE and is used as a positive control. […] Severity of EAE is measured by means of the EAE score which starts at […] and increases to a score of 5 when death occurs. For ethical reasons mice are sacrificed when a score of 4 is reached.
# [4] = test system: Mycobacterium tuberculosis Erdman strain; assay: Tuberculosis in mice; type: in vivo; conditions: 0.1, 1.0 or 10.0 ng i.p. days 1-5; day 0, 21 and 42
# Protocol: Groups of mice were exposed to Mycobacterium tuberculosis Erdman strain (M.tb) by inhalation on day 0. […] A control group of mice received vehicle only. On day 0, 21 and 42 the colony forming units (cfu) of M.tb in the lung were determined.
# [5] = 100 ng/day i.p., schedule 0, 3, 6
# [6] = 100 ng/day i.p., schedule −2, 0, 3, 6
# [7] = 1,000 ng/day i.p., schedule 0, 3, 6
molecule,measurement,setting,value
B1,loss in activity,"[1]; 1 μg/mL, HSA 1, 5 or 10% w/v, 4° C., 4, 11, 25, 39 and 54 days, preliminary",no loss in activity
same,storage time without loss of activity (DC assay),"[1]; 1 μg/ml with 3% HSA, 4° C.",at least 55 weeks
same,loss of activity,[1]; 2 hours 70° C.,No loss of activity
same,loss of activity,[1]; 6 hours at 55° C.,No loss of activity
same,loss of activity,[1]; 41 days at 37° C.,No loss of activity
same,Survive/Total,[2]; [5],2/10
same,Mean Day to Death ± SD,[2]; [5],12.1 ± 1.6 days
same,Survive/Total,[2]; [6],0/10
same,Mean Day to Death ± SD,[2]; [6],12.3 ± 1.2 days
same,decline in arterial oxygen saturation,"[2]; 1,000 ng",statistically significant reduction
same,Survive/Total,[2]; [7],3/10
same,Mean Day to Death ± SD,[2]; [7],12.7 ± 2.7 days
same,decline in arterial oxygen saturation,"[2]; 10,000 ng",statistically significant reduction
same,Survive/Total,"[2]; 10,000 ng/day i.p., schedule 0, 3, 6, P < 0.05",5/10*
same,Mean Day to Death ± SD,"[2]; 10,000 ng/day i.p., schedule 0, 3, 6",12.0 ± 1.4 days
same,Day 15 EAE Score ± SD,[3]; 0.1 μg i.p. daily for 5 days from day 10,2.7 ± 1.3
same,Day 15 EAE Score ± SD,[3]; 1.0 μg i.p. daily for 5 days from day 10,1.5 ± 1.6
same,Day 15 EAE Score ± SD,[3]; 10.0 μg i.p. daily for 5 days from day 10,1.1 ± 1.5
same,cfu of M.tb in the lung versus control group,[4],no statistically significant difference
